{
  "source": "paper doi:10.1101/2023.06.08.544223",
  "target": "SPARDA complex (heterodimer of NbaAgo and DREN-APAZ), wild type (Novosphingopyxis baekryungensis)",
  "assay": "SEC",
  "data": [
    {"substance": "SPARDA complex (heterodimer of NbaAgo and DREN-APAZ), wild type", "values": [
      {"measurement": "stoichiometry N", "result": 2}
    ]}
  ]
}
